Measurements: paper PMC11220742

How the values were obtained:
[1] = target: HLA-A*0101 H chain (extracellular domain) refolded with human β2-microglobulin; test: in vitro refolding, gel filtration; conditions: parent: est. 230; read off a plot
[2] = target: HLA-A*2601 H chain (extracellular domain) refolded with human β2-microglobulin; test: in vitro refolding, gel filtration; conditions: parent: est. 300; read off a plot

Substance	response [1] [mAU]	response [2] [mAU]
EVF peptide (SARS-CoV-2 S 340–351) F3D	330	
EVF peptide (SARS-CoV-2 S 340–351) E1A		290
EVF peptide (SARS-CoV-2 S 340–351) E1R		100
